# Laboratory results taken from patent US20040176301A1 (CYCLACEL, published 2004).
# Square brackets hold non-standard residues; d marks the D form. Ends that are not written are not given here. Phe(4-F) = N[C@@H](Cc1ccc(F)cc1)C(=O)O; 1Nal = N[C@@H](Cc1cccc2ccccc12)C(=O)O; Cit = NC(=O)NCCC[C@H](N)C(=O)O; hSer = N[C@@H](CCO)C(=O)O; Nle = CCCC[C@H](N)C(=O)O; Abu = CC[C@H](N)C(=O)O; Aib = CC(C)(N)C(=O)O; Sar = CNCC(=O)O
# Molecular target: T1, CDK2/cyclin A (UniProt P24941 1-298; P20248 1-432)
# Test: cell-based or functional assay
row,"Relative activity, Kinase Inhibition (CDK2/cyclin A kinase assay, pRb substrate, [ATP] = 100 µM)",Binder
1,< 0.1 relative to H-His-Ala-Lys-Arg-Arg-Leu-Ile-Phe-NH2 (=1),H-HAKRR[1Nal]IF-NH2 (SMILES CC[C@H](C)[C@H](NC(=O)[C@H](Cc1cccc2ccccc12)NC(=O)[C@H](CCCNC(=N)N)NC(=O)[C@H](CCCNC(=N)N)NC(=O)[C@H](CCCCN)NC(=O)[C@H](C)NC(=O)[C@@H](N)Cc1c[nH]cn1)C(=O)N[C@@H](Cc1ccccc1)C(N)=O) [H-His-Ala-Lys-Arg-Arg-1Nap-Ile-Phe-NH2]

# Molecular target: CDK4/Cyclin D1 complex (UniProt P11802 1-303; P24385 1-295)
# Sequence (P11802 other isoform, or with tags, fused parts or gaps, chain 1 of 2): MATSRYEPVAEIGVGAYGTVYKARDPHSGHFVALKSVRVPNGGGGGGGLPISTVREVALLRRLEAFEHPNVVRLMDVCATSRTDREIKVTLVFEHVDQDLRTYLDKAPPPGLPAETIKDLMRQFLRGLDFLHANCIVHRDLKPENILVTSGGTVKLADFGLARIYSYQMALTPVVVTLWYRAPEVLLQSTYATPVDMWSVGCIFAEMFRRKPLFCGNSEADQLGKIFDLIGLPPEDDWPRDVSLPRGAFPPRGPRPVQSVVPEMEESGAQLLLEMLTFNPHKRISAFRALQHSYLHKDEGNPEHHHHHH
# Sequence (P24385 whole entry, chain 2 of 2): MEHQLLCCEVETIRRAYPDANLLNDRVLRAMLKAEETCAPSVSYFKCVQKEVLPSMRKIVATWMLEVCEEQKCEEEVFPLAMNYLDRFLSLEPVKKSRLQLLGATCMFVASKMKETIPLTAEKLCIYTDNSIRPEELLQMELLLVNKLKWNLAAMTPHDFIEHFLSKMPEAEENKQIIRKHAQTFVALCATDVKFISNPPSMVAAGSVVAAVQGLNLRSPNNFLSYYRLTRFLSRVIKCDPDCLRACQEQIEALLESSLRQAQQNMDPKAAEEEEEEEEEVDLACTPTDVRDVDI
# Test: cell-based or functional assay
"% Inhibition, cyclin D1/CDK4 kinase","IC50, cyclin D1/CDK4 kinase, GST-pRb",Binder
70%,13 µM,DFYHSKRRLIF-NH2 [p21 (149-159) DFYHSKRRLIF-NH2]

# Molecular target: CDK2/Cyclin E complex (UniProt P24941 1-298; P24864 1-410)
# Test: cell-based or functional assay
"% Inhibition, cyclin E/CDK2 kinase","IC50, cyclin E/CDK2 kinase, GST-pRb",Binder
75%,2 µM,DFYHSKRRLIF-NH2 [p21 (149-159) DFYHSKRRLIF-NH2]

# Molecular target: T1, CDK2/cyclin A
# Test: cell-based or functional assay
# Remark: another data set of the same source
row,Binder,"Relative activity, Kinase Inhibition (CDK2/cyclin A kinase assay, pRb substrate, [ATP] = 100 µM)"
1,H-AAKR[Cit]LI[Phe(4-F)]-NH2 (SMILES CC[C@H](C)[C@H](NC(=O)[C@H](CC(C)C)NC(=O)[C@H](CCCNC(N)=O)NC(=O)[C@H](CCCNC(=N)N)NC(=O)[C@H](CCCCN)NC(=O)[C@H](C)NC(=O)[C@H](C)N)C(=O)N[C@@H](Cc1ccc(F)cc1)C(N)=O) [H-Ala-Ala-Lys-Arg-Cit-Leu-Ile-pFPhe-NH2],10 relative to H-His-Ala-Lys-Arg-Arg-Leu-Ile-Phe-NH2 (=1)
2,H-AAKRRLA[Phe(4-F)]-NH2 (SMILES CC(C)C[C@H](NC(=O)[C@H](CCCNC(=N)N)NC(=O)[C@H](CCCNC(=N)N)NC(=O)[C@H](CCCCN)NC(=O)[C@H](C)NC(=O)[C@H](C)N)C(=O)N[C@@H](C)C(=O)N[C@@H](Cc1ccc(F)cc1)C(N)=O) [H-Ala-Ala-Lys-Arg-Arg-Leu-Ala-pFPhe-NH2],20 relative to H-His-Ala-Lys-Arg-Arg-Leu-Ile-Phe-NH2 (=1)

# Other lines, results leading:
row,"Relative activity, Kinase Inhibition (CDK2/cyclin A kinase assay, pRb substrate, [ATP] = 100 µM)",Binder
1,14 relative to H-His-Ala-Lys-Arg-Arg-Leu-Ile-Phe-NH2 (=1),H-AA[Abu]RSLI[Phe(4-F)]-NH2 (SMILES CC[C@H](NC(=O)[C@H](C)NC(=O)[C@H](C)N)C(=O)N[C@@H](CCCNC(=N)N)C(=O)N[C@@H](CO)C(=O)N[C@@H](CC(C)C)C(=O)N[C@H](C(=O)N[C@@H](Cc1ccc(F)cc1)C(N)=O)[C@@H](C)CC) [H-Ala-Ala-Abu-Arg-Ser-Leu-Ile-pFPhe-NH2]
2,4 relative to H-His-Ala-Lys-Arg-Arg-Leu-Ile-Phe-NH2 (=1),H-AAKQRLI[Phe(4-F)]-NH2 (SMILES CC[C@H](C)[C@H](NC(=O)[C@H](CC(C)C)NC(=O)[C@H](CCCNC(=N)N)NC(=O)[C@H](CCC(N)=O)NC(=O)[C@H](CCCCN)NC(=O)[C@H](C)NC(=O)[C@H](C)N)C(=O)N[C@@H](Cc1ccc(F)cc1)C(N)=O) [H-Ala-Ala-Lys-Gln-Arg-Leu-Ile-pFPhe-NH2]
3,80 relative to H-His-Ala-Lys-Arg-Arg-Leu-Ile-Phe-NH2 (=1),H-AAKRRLI[Phe(4-F)]-NH2 (SMILES CC[C@H](C)[C@H](NC(=O)[C@H](CC(C)C)NC(=O)[C@H](CCCNC(=N)N)NC(=O)[C@H](CCCNC(=N)N)NC(=O)[C@H](CCCCN)NC(=O)[C@H](C)NC(=O)[C@H](C)N)C(=O)N[C@@H](Cc1ccc(F)cc1)C(N)=O) [H-Ala-Ala-Lys-Arg-Arg-Leu-Ile-pFPhe-NH2]
4,4 relative to H-His-Ala-Lys-Arg-Arg-Leu-Ile-Phe-NH2 (=1),AKRRLIX (pFPhe (p-fluorophenylalanine) at position 7; C-terminal amide (-NH2)) [H-Ala-Lys-Arg-Arg-Leu-Ile-pFPhe-NH2]
5,60 relative to H-His-Ala-Lys-Arg-Arg-Leu-Ile-Phe-NH2 (=1),H-AA[Abu]RRLI[Phe(4-F)]-NH2 (SMILES CC[C@H](NC(=O)[C@H](C)NC(=O)[C@H](C)N)C(=O)N[C@@H](CCCNC(=N)N)C(=O)N[C@@H](CCCNC(=N)N)C(=O)N[C@@H](CC(C)C)C(=O)N[C@H](C(=O)N[C@@H](Cc1ccc(F)cc1)C(N)=O)[C@@H](C)CC) [H-Ala-Ala-Abu-Arg-Arg-Leu-Ile-pFPhe-NH2]

# Molecular target: T1, CDK2/cyclin A
# Test: cell-based or functional assay
# Remark: another data set of the same source
row,Binder,"Relative activity, Kinase Inhibition (CDK2/cyclin A kinase assay, pRb substrate, [ATP] = 100 µM)"
1,H-HAKRNLIF-NH2 [H-His-Ala-Lys-Arg-Asn-Leu-Ile-Phe-NH2],< 0.1 relative to H-His-Ala-Lys-Arg-Arg-Leu-Ile-Phe-NH2 (=1)
2,H-HAKR[Aib]LIF-NH2 (SMILES CC[C@H](C)[C@H](NC(=O)[C@H](CC(C)C)NC(=O)C(C)(C)NC(=O)[C@H](CCCNC(=N)N)NC(=O)[C@H](CCCCN)NC(=O)[C@H](C)NC(=O)[C@@H](N)Cc1c[nH]cn1)C(=O)N[C@@H](Cc1ccccc1)C(N)=O) [H-His-Ala-Lys-Arg-Aib-Leu-Ile-Phe-NH2],< 0.1 relative to H-His-Ala-Lys-Arg-Arg-Leu-Ile-Phe-NH2 (=1)
3,H-HAKRPLIF-NH2 [H-His-Ala-Lys-Arg-Pro-Leu-Ile-Phe-NH2],< 0.1 relative to H-His-Ala-Lys-Arg-Arg-Leu-Ile-Phe-NH2 (=1)

# Now from value to binder:
row,"Relative activity, Kinase Inhibition (CDK2/cyclin A kinase assay, pRb substrate, [ATP] = 100 µM)",Binder
1,< 0.1 relative to H-His-Ala-Lys-Arg-Arg-Leu-Ile-Phe-NH2 (=1),H-HAKRALIF-NH2 [H-His-Ala-Lys-Arg-Ala-Leu-Ile-Phe-NH2]
2,< 0.1 relative to H-His-Ala-Lys-Arg-Arg-Leu-Ile-Phe-NH2 (=1),H-HAKR[Sar]LIF-NH2 (SMILES CC[C@H](C)[C@H](NC(=O)[C@H](CC(C)C)NC(=O)CN(C)C(=O)[C@H](CCCNC(=N)N)NC(=O)[C@H](CCCCN)NC(=O)[C@H](C)NC(=O)[C@@H](N)Cc1c[nH]cn1)C(=O)N[C@@H](Cc1ccccc1)C(N)=O) [H-His-Ala-Lys-Arg-Sar-Leu-Ile-Phe-NH2]
3,0.7 relative to H-His-Ala-Lys-Arg-Arg-Leu-Ile-Phe-NH2 (=1),H-HAKRSLIF-NH2 [H-His-Ala-Lys-Arg-Ser-Leu-Ile-Phe-NH2]

# Molecular target: T1, CDK2/cyclin A
# Test: cell-based or functional assay
# Remark: another data set of the same source
row,Binder,"Relative activity, Kinase Inhibition (CDK2/cyclin A kinase assay, pRb substrate, [ATP] = 100 µM)"
1,H-HAARRLIF-NH2 [H-His-Ala-Ala-Arg-Arg-Leu-Ile-Phe-NH2],< 0.1 relative to H-His-Ala-Lys-Arg-Arg-Leu-Ile-Phe-NH2 (=1)
2,H-HA[Nle]RRLIF-NH2 (SMILES CCCC[C@H](NC(=O)[C@H](C)NC(=O)[C@@H](N)Cc1c[nH]cn1)C(=O)N[C@@H](CCCNC(=N)N)C(=O)N[C@@H](CCCNC(=N)N)C(=O)N[C@@H](CC(C)C)C(=O)N[C@H](C(=O)N[C@@H](Cc1ccccc1)C(N)=O)[C@@H](C)CC) [H-His-Ala-Nle-Arg-Arg-Leu-Ile-Phe-NH2],0.3 relative to H-His-Ala-Lys-Arg-Arg-Leu-Ile-Phe-NH2 (=1)
3,H-HALRRLIF-NH2 [H-His-Ala-Leu-Arg-Arg-Leu-Ile-Phe-NH2],0.1 relative to H-His-Ala-Lys-Arg-Arg-Leu-Ile-Phe-NH2 (=1)

# Continued, values first:
row,"Relative activity, Kinase Inhibition (CDK2/cyclin A kinase assay, pRb substrate, [ATP] = 100 µM)",Binder
1,5.7 relative to H-His-Ala-Lys-Arg-Arg-Leu-Ile-Phe-NH2 (=1),H-HARRRLIF-NH2 [H-His-Ala-Arg-Arg-Arg-Leu-Ile-Phe-NH2]
2,0.8 relative to H-His-Ala-Lys-Arg-Arg-Leu-Ile-Phe-NH2 (=1),H-HA[Abu]RRLIF-NH2 (SMILES CC[C@H](NC(=O)[C@H](C)NC(=O)[C@@H](N)Cc1c[nH]cn1)C(=O)N[C@@H](CCCNC(=N)N)C(=O)N[C@@H](CCCNC(=N)N)C(=O)N[C@@H](CC(C)C)C(=O)N[C@H](C(=O)N[C@@H](Cc1ccccc1)C(N)=O)[C@@H](C)CC) [H-His-Ala-Abu-Arg-Arg-Leu-Ile-Phe-NH2]

# Molecular target: CDK2/cyclin A complex (UniProt P24941 1-298; P20248 1-432)
# Test: cell-based or functional assay
row,Binder,"Relative activity, CDK2/cyclin A kinase inhibition (pRb substrate)"
1,XAKRRLIF (Thi (2-thienylalanine) at position 1; C-terminal amide) [H-Thi-Ala-Lys-Arg-Arg-Leu-Ile Phe-NH2],2 relative to HAKRRLIF-NH2
2,H-AAKRRLIF-NH2 [H-Ala-Ala-Lys-Arg-Arg-Leu-Ile Phe-NH2],1.8 relative to HAKRRLIF-NH2
3,XAKRRLIF (Dab (diaminobutyric acid) at position 1; C-terminal amide) [H-Dab-Ala-Lys-Arg-Arg-Leu-Ile Phe-NH2],5 relative to HAKRRLIF-NH2

# Second part, the binder after the results:
row,"Relative activity, CDK2/cyclin A kinase inhibition (pRb substrate)",Binder
1,2 relative to HAKRRLIF-NH2,XAKRRLIF (Hse (homoserine) at position 1; C-terminal amide) [H-Hse-Ala-Lys-Arg-Arg-Leu-Ile Phe-NH2]
2,< 0.1 relative to HAKRRLIF-NH2,XAKRRLIF (Pya (3-pyridylalanine) at position 1; C-terminal amide) [H-Pya-Ala-Lys-Arg-Arg-Leu-Ile Phe-NH2]
3,3 relative to HAKRRLIF-NH2,H-FAKRRLIF-NH2 [H-Phe-Ala-Lys-Arg-Arg-Leu-Ile Phe-NH2]

# Molecular target: T1, CDK2/cyclin A
# Test: cell-based or functional assay
# Remark: another data set of the same source
row,Binder,"Relative activity, Kinase Inhibition (CDK2/cyclin A kinase assay, pRb substrate, [ATP] = 100 µM)"
1,H-HAKKRLIF-NH2 [H-His-Ala-Lys-Lys-Arg-Leu-Ile-Phe-NH2],0.8 relative to H-His-Ala-Lys-Arg-Arg-Leu-Ile-Phe-NH2 (=1)
2,H-HAKARLIF-NH2 [H-His-Ala-Lys-Ala-Arg-Leu-Ile-Phe-NH2],< 0.1 relative to H-His-Ala-Lys-Arg-Arg-Leu-Ile-Phe-NH2 (=1)

# More lines, now with the values ahead:
row,"Relative activity, Kinase Inhibition (CDK2/cyclin A kinase assay, pRb substrate, [ATP] = 100 µM)",Binder
1,< 0.1 relative to H-His-Ala-Lys-Arg-Arg-Leu-Ile-Phe-NH2 (=1),H-HAK[Nle]RLIF-NH2 (SMILES CCCC[C@H](NC(=O)[C@H](CCCCN)NC(=O)[C@H](C)NC(=O)[C@@H](N)Cc1c[nH]cn1)C(=O)N[C@@H](CCCNC(=N)N)C(=O)N[C@@H](CC(C)C)C(=O)N[C@H](C(=O)N[C@@H](Cc1ccccc1)C(N)=O)[C@@H](C)CC) [H-His-Ala-Lys-Nle-Arg-Leu-Ile-Phe-NH2]
2,< 0.1 relative to H-His-Ala-Lys-Arg-Arg-Leu-Ile-Phe-NH2 (=1),H-HAK[hSer]RLIF-NH2 (SMILES CC[C@H](C)[C@H](NC(=O)[C@H](CC(C)C)NC(=O)[C@H](CCCNC(=N)N)NC(=O)[C@H](CCO)NC(=O)[C@H](CCCCN)NC(=O)[C@H](C)NC(=O)[C@@H](N)Cc1c[nH]cn1)C(=O)N[C@@H](Cc1ccccc1)C(N)=O) [H-His-Ala-Lys-Hse-Arg-Leu-Ile-Phe-NH2]
3,< 0.1 relative to H-His-Ala-Lys-Arg-Arg-Leu-Ile-Phe-NH2 (=1),H-HAKQRLIF-NH2 [H-His-Ala-Lys-Gln-Arg-Leu-Ile-Phe-NH2]

# Molecular target: CDK1/Cyclin B complex (UniProt P06493 1-297; P14635 1-433)
# Sequence (P06493 other isoform, or with tags, fused parts or gaps, chain 1 of 2): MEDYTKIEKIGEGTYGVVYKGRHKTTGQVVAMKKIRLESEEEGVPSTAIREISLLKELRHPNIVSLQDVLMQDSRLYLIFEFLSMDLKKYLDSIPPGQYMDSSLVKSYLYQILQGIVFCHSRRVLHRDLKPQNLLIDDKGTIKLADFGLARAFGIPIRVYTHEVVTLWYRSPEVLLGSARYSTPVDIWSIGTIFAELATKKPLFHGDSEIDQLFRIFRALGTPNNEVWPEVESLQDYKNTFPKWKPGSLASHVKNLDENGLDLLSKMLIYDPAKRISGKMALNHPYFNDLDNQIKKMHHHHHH
# Sequence (P14635 other isoform, or with tags, fused parts or gaps, chain 2 of 2): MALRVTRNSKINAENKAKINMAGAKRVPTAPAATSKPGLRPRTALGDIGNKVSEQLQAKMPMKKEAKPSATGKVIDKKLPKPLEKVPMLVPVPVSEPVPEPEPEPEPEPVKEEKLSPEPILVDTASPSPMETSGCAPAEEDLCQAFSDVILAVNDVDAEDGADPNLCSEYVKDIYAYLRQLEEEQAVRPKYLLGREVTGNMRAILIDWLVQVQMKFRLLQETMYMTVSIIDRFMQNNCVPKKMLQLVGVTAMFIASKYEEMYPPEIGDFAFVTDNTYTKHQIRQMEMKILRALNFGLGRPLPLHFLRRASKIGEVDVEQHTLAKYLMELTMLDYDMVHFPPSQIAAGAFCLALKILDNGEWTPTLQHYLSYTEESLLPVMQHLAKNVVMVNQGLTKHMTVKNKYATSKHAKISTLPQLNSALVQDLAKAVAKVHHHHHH
# Test: cell-based or functional assay
"IC50, CDK1-Cyclin B phosphorylation of GST-Rb","IC50, CDK1-Cyclin B phosphorylation of Histone 1",Binder
> 200 µM,200 µM,DFYHAKRRLIFS-NH2 [p21 (149-160)S153A DFYHAKRRLIFS-NH2]
> 200 µM,,DFYHSKRRLIF-NH2 [p21 (149-159) DFYHSKRRLIF-NH2]
